Assay results from article PMC4241043.

Legend:
[1] = molecular target: protein FAF on the surface of F. magna strain ALB8 (F. magna (endogenous in strain ALB8)); test: radioligand binding
[2] = molecular target: FAF-expressing strains (ALB8, L3410, 1462 and 2133); test: radioligand binding
[3] = molecular target: protein FAF (F. magna adhesion factor), recombinant, amino acids 28-616 (F. magna); test: SPR

galectin-7, sequence (P47929 whole entry): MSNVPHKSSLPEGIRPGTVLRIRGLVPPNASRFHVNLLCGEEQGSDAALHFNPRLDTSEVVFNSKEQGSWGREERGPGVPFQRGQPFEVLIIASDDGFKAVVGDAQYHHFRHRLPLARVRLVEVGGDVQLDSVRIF

| Substance | percent binding of 125I-labelled fragment [1] [%] | percent of added radiolabelled galectin-7 bound [2] [%] | Kd [3] [nM] |
| --- | --- | --- | --- |
| rF16, N-terminal half of fibrillin-1 (domain or fragment) | 24 |  |  |
| galectin-7 (from UniProt P47929 1-136) (natural protein) |  | 20 to 30 | 0.53 |
| rFBN2-2, N-terminal half of fibrillin-2 (domain or fragment) | 17 |  |  |
